From US20120316071A1 (published 2012)
Changes are numbered by the printed parent chain. Names may count otherwise.

B1: Fab VH5-51_IGHD5-18*01>3_IGHJ4*01 G100K/G104T G24T/S28R/G35V (H:KT TRV) & V3-4_IGLJ1*01 T78E (Fab, V domains shown)
VH: EVQLVQSGAEVKKPGESLKISCKTSGYRFTSYWIVWVRQMPGKGLEWMGIIYPGDSDTRYSPSFQGQVTISADKSISTAYLQWSSLKASDTAMYYCARRKYSYTYDYFDYWGQGTLVTVSS
VL: QTVVTQEPSFSVSPGGTVTLTCGLSSGSVSTSYYPSWYQQTPGQAPRTLIYSTNTRSSGVPDRFSGSILGNKAALTIEGAQADDESDYYCVLYMGSGISYVFGTGTKVTVL
notes: Fab; expressed in E. coli with CH1 (Plasmid A, His6 and Flag tags) and lambda CL (Plasmid E); also called H:KT TRV & T78E
B2: Fab VH5-51_IGHD5-18*01>3_IGHJ4*01 G100K/G104T G24T/S28R/G35V & V3-4_IGLJ1*01 V91L/S96P (Fab, V domains shown)
VH: B1 VH
VL: B1 VL with E78T, V91L, S96P
notes: Fab expressed in E. coli; heavy chain vector adds CH1 with His6 and Flag tags, light chain vector adds lambda CL; Template of the S52, T53 and S57 light chain mutants; also called H:KT TRV & L:LP
B3: Fab VH5-51_IGHD5-18*01>3_IGHJ4*01 G100K/G104T G24T/S28R/G35V & V3-4_IGLJ1*01 V91L/S96P S52G (Fab, V domains shown)
VH: B1 VH
VL: B1 VL with S52G, E78T, V91L, S96P
notes: Fab expressed in E. coli; heavy chain vector adds CH1 with His6 and Flag tags, light chain vector adds lambda CL; also called H:KT TRV & L:LP S52G
B4: Fab VH5-51_IGHD5-18*01>3_IGHJ4*01 G100K/G104T G24T/S28R/G35V & V3-4_IGLJ1*01 V91L/S96P S52D (Fab, V domains shown)
VH: B1 VH
VL: B1 VL with S52D, E78T, V91L, S96P
notes: Fab expressed in E. coli; heavy chain vector adds CH1 with His6 and Flag tags, light chain vector adds lambda CL; also called H:KT TRV & L:LP S52D
B5: Fab VH5-51_IGHD5-18*01>3_IGHJ4*01 G100K/G104T G24T/S28R/G35V & V3-4_IGLJ1*01 V91L/S96P S52H (Fab, V domains shown)
VH: B1 VH
VL: B1 VL with S52H, E78T, V91L, S96P
notes: Fab expressed in E. coli; heavy chain vector adds CH1 with His6 and Flag tags, light chain vector adds lambda CL; also called H:KT TRV & L:LP S52H
B6: Fab VH5-51_IGHD5-18*01>3_IGHJ4*01 G100K/G104T G24T/S28R/G35V & V3-4_IGLJ1*01 V91L/S96P S52F (Fab, V domains shown)
VH: B1 VH
VL: B1 VL with S52F, E78T, V91L, S96P
notes: Fab expressed in E. coli; heavy chain vector adds CH1 with His6 and Flag tags, light chain vector adds lambda CL; also called H:KT TRV & L:LP S52F
B7: Fab VH5-51_IGHD5-18*01>3_IGHJ4*01 G100K/G104T G24T/S28R/G35V (H:KT TRV) & V3-4_IGLJ1*01 V29A (Fab, V domains shown)
VH: B1 VH
VL: B1 VL with V29A, E78T
notes: Fab; expressed in E. coli with CH1 (Plasmid A, His6 and Flag tags) and lambda CL (Plasmid E); also called H:KT TRV & V29A
B8: Fab VH5-51_IGHD5-18*01>3_IGHJ4*01 G100K/G104T G24T/S28R/G35V (H:KT TRV) & V3-4_IGLJ1*01 T78V (Fab, V domains shown)
VH: B1 VH
VL: B1 VL with E78V
notes: Fab; expressed in E. coli with CH1 (Plasmid A, His6 and Flag tags) and lambda CL (Plasmid E); also called H:KT TRV & T78V
B9: Fab VH5-51_IGHD5-18*01>3_IGHJ4*01 G100K/G104T G24T/S28R/G35V & V3-4_IGLJ1*01 V91L/S96P S52E (Fab, V domains shown)
VH: B1 VH
VL: B1 VL with S52E, E78T, V91L, S96P
notes: Fab expressed in E. coli; heavy chain vector adds CH1 with His6 and Flag tags, light chain vector adds lambda CL; also called H:KT TRV & L:LP S52E
B10: Fab VH5-51_IGHD5-18*01>3_IGHJ4*01 G100K/G104T G24T/S28R/G35V (H:KT TRV) & V3-4_IGLJ1*01 Y34A (Fab, V domains shown)
VH: B1 VH
VL: B1 VL with Y34A, E78T
notes: Fab; expressed in E. coli with CH1 (Plasmid A, His6 and Flag tags) and lambda CL (Plasmid E); also called H:KT TRV & Y34A
B11: Fab VH5-51_IGHD5-18*01>3_IGHJ4*01 G100K/G104T G24T/S28R/G35V & V3-4_IGLJ1*01 V91L/S96P S52I (Fab, V domains shown)
VH: B1 VH
VL: B1 VL with S52I, E78T, V91L, S96P
notes: Fab expressed in E. coli; heavy chain vector adds CH1 with His6 and Flag tags, light chain vector adds lambda CL; also called H:KT TRV & L:LP S52I
B12: Fab VH5-51_IGHD5-18*01>3_IGHJ4*01 G100K/G104T G24T/S28R/G35V (H:KT TRV) & V3-4_IGLJ1*01 T78K (Fab, V domains shown)
VH: B1 VH
VL: B1 VL with E78K
notes: Fab; expressed in E. coli with CH1 (Plasmid A, His6 and Flag tags) and lambda CL (Plasmid E); also called H:KT TRV & T78K
B13: Fab VH5-51_IGHD5-18*01>3_IGHJ4*01 G100K/G104T G24T/S28R/G35V (H:KT TRV) & V3-4_IGLJ1*01 T78L (Fab, V domains shown)
VH: B1 VH
VL: B1 VL with E78L
notes: Fab; expressed in E. coli with CH1 (Plasmid A, His6 and Flag tags) and lambda CL (Plasmid E); also called H:KT TRV & T78L
B14: Fab VH5-51_IGHD5-18*01>3_IGHJ4*01 G100K/G104T G24T/S28R/G35V (H:KT TRV) & V3-4_IGLJ1*01 Y33A (Fab, V domains shown)
VH: B1 VH
VL: B1 VL with Y33A, E78T
notes: Fab; expressed in E. coli with CH1 (Plasmid A, His6 and Flag tags) and lambda CL (Plasmid E); also called H:KT TRV & Y33A
B15: Fab VH5-51_IGHD5-18*01>3_IGHJ4*01 G100K/G104T G24T/S28R/G35V (H:KT TRV) & V3-4_IGLJ1*01 V91A (Fab, V domains shown)
VH: B1 VH
VL: B1 VL with E78T, V91A
notes: Fab; expressed in E. coli with CH1 (Plasmid A, His6 and Flag tags) and lambda CL (Plasmid E); also called H:KT TRV & V91A
B16: Fab VH5-51_IGHD5-18*01>3_IGHJ4*01 G100K/G104T G24T/S28R/G35V (H:KT TRV) & V3-4_IGLJ1*01 Y93A (Fab, V domains shown)
VH: B1 VH
VL: B1 VL with E78T, Y93A
notes: Fab; expressed in E. coli with CH1 (Plasmid A, His6 and Flag tags) and lambda CL (Plasmid E); also called H:KT TRV & Y93A

Key:
Recombinant Human DLL4 = biological target: T1, Recombinant Human DLL4 (human, UniProt Q9NR61 27-524); experiment: ELISA, DLL4 coated on plate, Fab at 100 nM, absorbance at 450 nm minus blank
T1 construct: also called delta-like protein 4; rHuman DLL4

[1] = biological target: T2, Recombinant Human DLL4 (delta-like protein 4) (human, UniProt Q9NR61 27-524); experiment: ELISA, DLL4 coated on plate, Fab at 100 nM
T2 construct: also called rHuman DLL4; Delta-like 4

| Binder | ELISA Signal-blank (100 nM Fab) (Recombinant Human DLL4) | ELISA Signal-blank (100 nM Fab) [1] |
| --- | --- | --- |
| B1 | 0.217 | – |
| B2 | – | 0.39 |
| B3 | – | 0.53 |
| B4 | – | 0.39 |
| B5 | – | 0.44 |
| B6 | – | 0.33 |
| B7 | 0.394 | – |
| B8 | 0.34 | – |
| B9 | – | 0.38 |
| B10 | 0.085 | – |
| B11 | – | 0.42 |
| B12 | 0.48 | – |
| B13 | 0.347 | – |
| B14 | 0.301 | – |
| B15 | 0.606 | – |
| B16 | 0.185 | – |
